Data published in US20200268847A1, “Methods of Treating Newly Diagnosed Multiple Myeloma with a Combination of An Antibody that Specifically Binds CD38, Lenalidomide and Dexamethasone” (Janssen Biotech, Inc., priority 2019, published 2020).

Experiments:
[1] = tested on: minimal residual disease (clonal multiple myeloma cells in bone marrow); experiment: MAIA: minimal residual disease in bone marrow aspirates by next-generation sequencing (clonoSEQ version 2.0); assay type: in vivo, human; settings: threshold 1 tumor cell per 10^5 white cells
Excerpt: MRD status may be assessed from bone marrow aspirate samples using for example next generation sequencing (NGS) of immunoglobulin heavy and light chains. The updated, analytically validated version of the clonoSEQ® Assay (Version 2) by Adaptive Biotechnologies may be used for the detection, quantification and analysis of MRD.
A central laboratory performed disease evaluations (serum and 24-hour urine samples) every 28 days for 2 years, and then every 8 weeks until disease progression. For patients with positive serum immunofixation and daratumumab (DARZALEX®) interference, complete responses were confirmed using reflex assays (McCudden et al., Clin Chem Lab Med 54:1095-1104, 2016). Minimal residual disease was evaluated by next-generation sequencing assays (clonoSEQ® version 2.0; Adaptive Biotechnologies) on bone marrow aspirates collected at baseline, at time of suspected complete or stringent complete response (undetectable M-protein on two consecutive serum and urine electrophoresis tests), and at 12, 18, 24, and 30 months post-first dose in patients who achieved a complete response or better.

[2] = tested on: patients with newly diagnosed multiple myeloma ineligible for HDC and ASCT; experiment: MAIA: safety, adverse events graded by NCI-CTCAE version 4, treatment discontinuations
Excerpt: Safety will be measured by adverse events, laboratory test results, ECGs, vital sign measurements, physical examination findings, and assessment of ECOG performance status score.
Safety analyses included adverse event assessment graded in severity according to NCI-CTCAE version 4, electrocardiograms, clinical laboratory testing, physical examinations, and vital signs.
The safety population included patients who received any dose of trial treatment.

[3] = Grade 3 or 4, safety population

## daratumumab (DARZALEX®) group: daratumumab (DARZALEX®) in combination with lenalidomide and dexamethasone
[1]; ITT population
  Negative status for minimal residual disease: 89 (24.2) no. (%)
[1]
  negative status for minimal residual disease, times as high as in the control group: more than 3 times
[1]; ITT, P<0.0001
  patients minimal residual disease-negative: 24.2%
[2]
  patients with adverse events leading to discontinuation of trial treatment: 7.1%
[2]; % of patients
  adverse events leading to death: 6.9%
  invasive second primary malignancies: 3.3%
  pneumonia as adverse event leading to death: 0.5%
  pneumonia as serious adverse event: 13.2%
  serious adverse events: 62.9%
[2]; Any Grade, safety population
  Any infusion-related reaction: 149 (40.9) number of patients (percent)
  Asthenia: 117 (32.1) number of patients (percent)
  Back pain: 123 (33.8) number of patients (percent)
  Constipation: 149 (40.9) number of patients (percent)
  Diarrhea: 207 (56.9) number of patients (percent)
  Fatigue: 147 (40.4) number of patients (percent)
  Invasive second primary malignancy: 12 (3.3) number of patients (percent)
  Nausea: 115 (31.6) number of patients (percent)
  Peripheral edema: 140 (38.5) number of patients (percent)
  Second primary malignancy: 32 (8.8) number of patients (percent)
  anemia: 126 (34.6) number of patients (percent)
  leukopenia: 68 (18.7) number of patients (percent)
  lymphopenia: 66 (18.1) number of patients (percent)
  pneumonia: 82 (22.5) number of patients (percent)
[2]; Any Grade, safety population (N = 364 vs 365)
  neutropenia: 207 (56.9) number of patients (percent)
[2]; [3]
  Any infusion-related reaction: 10 (2.7) number of patients (percent)
  Asthenia: 16 (4.4) number of patients (percent)
  Back pain: 11 (3.0) number of patients (percent)
  Constipation: 6 (1.6) number of patients (percent)
  Diarrhea: 24 (6.6) number of patients (percent)
  Fatigue: 29 (8.0) number of patients (percent)
  Nausea: 5 (1.4) number of patients (percent)
  Peripheral edema: 7 (1.9) number of patients (percent)
  anemia: 43 (11.8) number of patients (percent)
  leukopenia: 40 (11.0) number of patients (percent)
  lymphopenia: 55 (15.1) number of patients (percent)
  neutropenia: 182 (50.0) number of patients (percent)
  pneumonia: 50 (13.7) number of patients (percent)
[2]; at clinical cutoff date Sep. 24, 2018
  treatment discontinued due to adverse events: 7.4%
[2]; grade 3/4 adverse events
  anemia: 11.8%
  leukopenia: 11.0%
  lymphopenia: 15.1%
  neutropenia: 50.0%
  pneumonia: 13.7%
[2]; in vivo
  discontinued treatment due to neutropenia: no patients
  invasive second primary malignancies: hematologic malignancies: 0.5%
  invasive second primary malignancies: solid tumors: 2.7%
  lenalidomide dose delays, reductions, re-escalations, or skipping (combined) due to treatment-emergent adverse events: 77.5%
  lenalidomide dose discontinuations due to treatment-emergent adverse events: 20.9%
